B1: VHH1 (VHH)
VHH: QVQLVESGGGLVQPGGSLRLSCAASGFTFSDTWMNWVRQAPGKGLYWISAINPDGGNTAYADSVKGRFTISRDNAKNMVYLQMDNLRPEDTAMYYCAKGWVRLPDPDLVRGQGTQVTVSS
notes: Non-specific control VHH; also called non-specific VHH; negative control VHH1
B2: 4-92 (VHH)
VHH: QVQLQESGGGLVQPGGSLRLSCAASGFAFSSRAMSWVRQAPGKGLEWVSDINYDGAWTYYADSVKGRFTISRDNAKNTLYLQMNSLKPEDTAVYFCTDPWSIDGWGQGTQVTVSS
notes: Alpaca VHH from the phage library; not shown: one his tag and one HA tag at the C-terminus
B3: VHH2 (VHH)
VHH: QVQLVESGGGLVQAGGSLRLSCAASGSIFSINAMAWYRHRPGMQRERVAAISSGGTTSYADSVKGRFTISRDNARDTLYLQMNSLKPEDTAMYYCAACPGDYTSTICNSDGMDYWGKGTLVTVSS
notes: Non-specific control VHH; also called non-specific VHH; negative control VHH2
B4: 5-26 (VHH)
VHH: QVQLQESGGGLVQPGGSLRLSCAASGFTLDLYAIGWFRQAPGKERERVSCISSGGSTNYAESVKGRFTISRDNGKNTVYLQMNSLKPEDTAVYYCVRSVPSCGSYYFPPRNMNYWGKGTQVTVSS
notes: as for B2
B5: 5-09 (VHH)
VHH: QVQLQESGGGLVQPGGSLRLSCAASGFTLDDYAIGWFRQAPGKERERISCISSGGNTNYADSVKGRFTLSRDNAKNTVYLQMYSLKPEDTAVYYCTASIPSCASYYFPPRNMDYWGKGTQVTVSS
notes: also called 5-9; not shown: one his tag and one HA tag at the C-terminus
B6: hu5-26 ROR1 VHH CAR (other)
chain: QVQLVESGGGLVQPGGSLRLSCAASGFTLDLYAIGWFRQAPGKERGLVSCISSGGSTNYAESVKGRFTISRDNSKNTVYLQMNSLRSEDTAVYYCVRSVPSCGSYYFPPRNMNYWGQGTLVTVSSIEVMYPPPYLDNEKSNGTIIHVKGKHLCPSPLFPGPSKPFWVLVVVGGVLACYSLLVTVAFIIFWVKRGRKKLLYIFKQPFMRPVQTTQEEDGCSCRFPEEEEGGCELRVKFSRSADAPAYKQGQNQLYNELNLGRREEYDVLDKRRGRDPEMGGKPRRKNPQEGLYNELQKDKMAEAYSEIGMKGERRRGKGHDGLYQGLSTATKDTYDALHMQALPPR
B7: 5-95 (VHH)
VHH: QVQLQESGGGLVQPGGSLRLSCAASGFTFSTYSMTWVRQAPGKGLEWVSDINSGGSVAYYTDSVKGRFTASRDNAKNTLYLQMNSLKPEDTAVYYCYEGGYHGGSPRGHGTQVTVSS
notes: not shown: one his tag and one HA tag at the C-terminus

Columns and labels:
recombinant ROR1 protein = biological target: T1, recombinant ROR1 protein (UniProt Q01973 30-403, limits assumed); test: ELISA, OD450 (FIG. 6C)
T1 construct: also called his-tagged ROR1; not shown: his tag

[1] = biological target: T2, ROR1 expressed on cells (A549, MB231, JeKo-1, MEC-ROR1) (UniProt Q01973 30-937); test: flow cytometry on JeKo-1 cells, 1 µg/ml, anti-HA APC
T2 construct: whole, on cells; also called ROR1-expressing cell lines; ROR1-positive cells

[2] = biological target: T2, ROR1 expressed on cells (A549, MB231, …); test: flow cytometry on A549 cells, 1 µg/ml, anti-HA APC
[3] = biological target: T2, ROR1 expressed on cells (A549, MB231, …); test: flow cytometry on MB231 cells, 1 µg/ml, anti-HA APC
[4] = biological target: T2, ROR1 expressed on cells (A549, MB231, …); test: cell-based or functional assay

T2 sequence (Q01973 30-937): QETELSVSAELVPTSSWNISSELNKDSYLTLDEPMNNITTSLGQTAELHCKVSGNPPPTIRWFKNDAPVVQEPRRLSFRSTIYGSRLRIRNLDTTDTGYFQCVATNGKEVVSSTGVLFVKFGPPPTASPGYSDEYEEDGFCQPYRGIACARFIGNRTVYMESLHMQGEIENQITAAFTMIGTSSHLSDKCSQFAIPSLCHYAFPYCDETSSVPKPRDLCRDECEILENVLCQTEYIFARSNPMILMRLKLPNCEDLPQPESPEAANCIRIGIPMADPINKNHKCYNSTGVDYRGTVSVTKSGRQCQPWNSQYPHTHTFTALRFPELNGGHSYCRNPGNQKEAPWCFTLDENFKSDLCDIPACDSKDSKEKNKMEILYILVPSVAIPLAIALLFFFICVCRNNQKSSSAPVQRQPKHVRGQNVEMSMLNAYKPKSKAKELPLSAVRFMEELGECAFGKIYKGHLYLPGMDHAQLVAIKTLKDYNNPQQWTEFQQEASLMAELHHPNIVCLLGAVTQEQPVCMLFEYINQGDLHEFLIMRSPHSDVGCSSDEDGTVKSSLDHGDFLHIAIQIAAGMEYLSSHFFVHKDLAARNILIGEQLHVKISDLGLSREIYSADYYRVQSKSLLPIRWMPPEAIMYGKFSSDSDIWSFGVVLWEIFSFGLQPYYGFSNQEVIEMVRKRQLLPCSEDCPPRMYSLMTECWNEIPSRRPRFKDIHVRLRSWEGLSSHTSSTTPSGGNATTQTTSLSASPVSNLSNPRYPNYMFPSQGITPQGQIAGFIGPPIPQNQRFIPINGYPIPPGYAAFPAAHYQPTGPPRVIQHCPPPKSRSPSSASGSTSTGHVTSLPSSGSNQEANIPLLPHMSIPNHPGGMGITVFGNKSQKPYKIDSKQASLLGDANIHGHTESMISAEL
T1 sequence (Q01973 30-403 limits assumed): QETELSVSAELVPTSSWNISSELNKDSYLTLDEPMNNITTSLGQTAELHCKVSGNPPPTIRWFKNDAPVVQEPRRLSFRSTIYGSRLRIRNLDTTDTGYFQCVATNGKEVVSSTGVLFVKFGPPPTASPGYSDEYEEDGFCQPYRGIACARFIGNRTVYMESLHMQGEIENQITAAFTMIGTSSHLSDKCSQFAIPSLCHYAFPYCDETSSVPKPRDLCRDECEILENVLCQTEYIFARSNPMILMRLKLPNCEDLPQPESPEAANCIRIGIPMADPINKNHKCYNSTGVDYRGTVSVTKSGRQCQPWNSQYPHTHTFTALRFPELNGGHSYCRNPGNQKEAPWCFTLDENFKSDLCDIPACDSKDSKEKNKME

Binder	binding result (recombinant ROR1 protein)	proportion of binding cells [1]	proportion of binding cells [2]	proportion of binding cells [3]	proportion of target cells (surviving, GFP-labeled) after 24 hours, effector-to-target ratio 1:1, MB231 [4]	proportion of target cells (surviving, GFP-labeled) after 24 hours, effector-to-target ratio 1:1, MEC-ROR1 [4]
B1	no binding					
B2		2.96%	34.6%	74.3%		
B3	no binding					
B4		99.7%	97%	96.8%		
B5		1.9%	18.5%	61.7%		
B6					2.96%	1.93%
B7		1.18%	11.8%	53.3%		

— US20260217821A1 (SPH BIOTHERAPEUTICS SHANGHAI, published 2026)
